T1: human GFRAL (NCBI Ref. Sequence No. NP_997293.2) expressed on HEK293 cells with human RET51 (human, UniProt Q6UXV0 19-394)
T1 sequence (looked up): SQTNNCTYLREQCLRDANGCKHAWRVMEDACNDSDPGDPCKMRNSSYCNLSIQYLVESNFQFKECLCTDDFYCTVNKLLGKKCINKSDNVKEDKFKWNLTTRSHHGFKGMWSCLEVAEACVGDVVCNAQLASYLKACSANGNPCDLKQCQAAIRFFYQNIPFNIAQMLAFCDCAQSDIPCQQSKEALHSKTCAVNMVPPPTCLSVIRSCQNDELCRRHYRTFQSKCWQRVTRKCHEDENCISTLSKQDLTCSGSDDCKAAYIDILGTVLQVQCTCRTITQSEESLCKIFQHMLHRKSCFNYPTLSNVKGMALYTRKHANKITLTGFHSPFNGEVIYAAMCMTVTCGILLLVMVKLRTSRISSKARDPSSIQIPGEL

T2: HIS-tagged human GFRAL ECD (human, UniProt Q6UXV0 20-338)
T2 construct: Produced in CHOK1 cell derivatives; also called Human GFRAL ECD (D1-D2-D3-ECD) Receptor; soluble human GFRAL extracellular domain
T2 sequence: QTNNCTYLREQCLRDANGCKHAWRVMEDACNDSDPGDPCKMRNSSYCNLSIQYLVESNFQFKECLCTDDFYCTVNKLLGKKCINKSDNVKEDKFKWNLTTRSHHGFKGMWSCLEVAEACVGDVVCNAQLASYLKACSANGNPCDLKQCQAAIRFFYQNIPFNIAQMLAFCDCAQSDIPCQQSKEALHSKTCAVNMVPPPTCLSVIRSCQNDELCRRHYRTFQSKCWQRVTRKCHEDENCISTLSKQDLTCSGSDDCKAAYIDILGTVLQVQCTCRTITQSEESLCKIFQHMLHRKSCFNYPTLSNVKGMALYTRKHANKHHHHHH

B1: Compound 2 (homodimer of two compounds including SEQ ID NO: 2) (Fc fusion)
chain: EAAGGPSVFLFPPKPKDTLMISRTPEVTCVVVDVSQEDPEVQFNWYVDGVEVHNAKTKPREEQFNSTYRVVSVLTVLHQDWLNGKEYKCKVSNKGLPSSIEKTISKAKGQPREPQVYTLPPSQEEMTKNQVSLTCLVKGFYPSDIAVEWESNGQPENNYKTTPPVLDSDGSFQLESRLTVDKSRWQEGNVFSCSVMHEALHNHYTQKSLSLSLGGGGGAPAPAPAPAPAPAPAPAPAPGGGGGDHCPLGPGRCCRLHTVRASLEDLGWADWVLSPREVQVTMCIGACPSQFRAANMHAQIKTSLHRLKPDTVPAPCCVPASYNPMVLIQKTDTGVSLQTYDDLLAKDCHCI
notes: Homodimer linked by at least one interchain disulfide bond between the GDF15 portions; also called homodimer of the Fc-GDF15 Compound 1
B2: Mature human GDF15 (homodimer of two compounds including SEQ ID NO: 1) (ligand)
chain: ARNGDHCPLGPGRCCRLHTVRASLEDLGWADWVLSPREVQVTMCIGACPSQFRAANMHAQIKTSLHRLKPDTVPAPCCVPASYNPMVLIQKTDTGVSLQTYDDLLAKDCHCI

Key:
[1] = molecular target: T1, human GFRAL (NCBI Ref. Sequence No. …); test: cell-based or functional assay
[2] = molecular target: T2, HIS-tagged human GFRAL ECD; test: SPR, Biacore T200, 25 C; compound captured by immobilized anti-GDF15 antibody, GFRAL ECD as analyte; 1:1 fit
Description: To measure human GDF15 (des-ARN SEQ ID NO:1) or Compound 2 binding to human GFRAL ECD, a Biacore T200 Instrument is used to measure the binding kinetics of human GDF15 homodimer (des-ARN SEQ ID NO:1) and Compound 2 to the GFRAL ECD. Measurements are performed at 25° C. Samples are dissolved in HBS-EP+, pH 7.4 (GE Healthcare; 10 mM HEPES pH 7.4+150 mM NaCl+3 mM EDTA+0.05% surfactant P20). Goat […] GDF15 antibody (R&D) is immobilized on the flow cells of a CM5 sensor chip using amine coupling chemistry. GDF15 samples are prepared at 25 μg/ml by dilution into running buffer.
Human GFRAL ECD samples are prepared at final concentrations of 1000, 500, 250, 125, 62.5, 31.3, 15.6, 7.8, 3.9, 2.0 and 0 (blank) nM by dilution into running buffer. The SPR experiment includes the following steps: (1) capturing GDF15 samples on separate flow cells (Fc2, Fc3 and Fc4), (2) injecting 200 μl of human GFRAL ECD over all flow cells at […], (3) dissociating for 600 sec, (4) regenerating chip surfaces with a 10 μl (30 sec) injection of glycine, pH 1.5, at […], and (5) equilibrating chip surfaces with a 10 μl (30 sec) injection of HBS-EP+ at […]. Each concentration of human GFRAL ECD is injected in duplicate.
Data are processed using standard double-referencing and fit to a 1:1 binding model using Biacore T200 Evaluation Software to determine the association rate (kₒₙ, M⁻¹s⁻¹), dissociation rate (koff, s⁻¹) and maximum response (Rmax; response units (RU)). The equilibrium dissociation constant (KD) is calculated from the relationship KD=koff/kₒₙ (M).

Binder | EC50 of ERK1/2 phosphorylation (AlphaLISA pERK1/2) in HEK293 cells expressing human GFRAL and human RET51 [1] [pM] | Kd [2] [nM] | koff [2] [s⁻¹] | kon [2] [M⁻¹ s⁻¹]
B1 | 86.2 | 8.3 | 0.00871 | 1.05e+06
B2 | 27.9 | – | – | –

From patent US20190309033A1 (Eli Lilly, published 2019)
